{
  "source": "paper PMC2734569",
  "about": "“Functional mapping of the fission yeast DNA polymerase δ B-subunit Cdc1 by site-directed and random pentapeptide insertion mutagenesis” (BMC Molecular Biology, 2009)",
  "binders": {"B1": {"name": "Pol3 (fission yeast DNA polymerase delta catalytic subunit) (natural protein, Schizosaccharomyces pombe, UniProt P30316 1-1086, looked up)", "chain": "MTDRSSNEGVVLNKENYPFPRRNGSIHGEITDVKRRRLSERNGYGDKKGSSSKEKTSSFEDELAEYASQLDQDEIKSSKDQQWQRPALPAINPEKDDIYFQQIDSEEFTEGSVPSIRLFGVTDNGNSILVHVVGFLPYFYVKAPVGFRPEMLERFTQDLDATCNGGVIDHCIIEMKENLYGFQGNEKSPFIKIFTTNPRILSRARNVFERGEFNFEELFPVGVGVTTFESNTQYLLRFMIDCDVVGMNWIHLPASKYQFRYQNRVSNCQIEAWINYKDLISLPAEGQWSKMAPLRIMSFDIECAGRKGVFPDPSIDPVIQIASIVTQYGDSTPFVRNVFCVDTCSQIVGTQVYEFQNQAEMLSSWSKFVRDVDPDVLIGYNICNFDIPYLLDRAKSLRIHNFPLLGRIHNFFSVAKETTFSSKAYGTRESKTTSIPGRLQLDMLQVMQRDFKLRSYSLNAVCSQFLGEQKEDVHYSIITDLQNGTADSRRRLAIYCLKDAYLPQRLMDKLMCFVNYTEMARVTGVPFNFLLARGQQIKVISQLFRKALQHDLVVPNIRVNGTDEQYEGATVIEPIKGYYDTPIATLDFSSLYPSIMQAHNLCYTTLLDSNTAELLKLKQDVDYSVTPNGDYFVKPHVRKGLLPIILADLLNARKKAKADLKKETDPFKKAVLDGRQLALKVSANSVYGFTGATNGRLPCLAISSSVTSYGRQMIEKTKDVVEKRYRIENGYSHDAVVIYGDTDSVMVKFGVKTLPEAMKLGEEAANYVSDQFPNPIKLEFEKVYFPYLLISKKRYAGLFWTRTDTYDKMDSKGIETVRRDNCPLVSYVIDTALRKMLIDQDVEGAQLFTKKVISDLLQNKIDMSQLVITKALSKTDYAAKMAHVELAERMRKRDAGSAPAIGDRVAYVIIKGAQGDQFYMRSEDPIYVLENNIPIDAKYYLENQLSKPLLRIFEPILGEKASSLLHGDHTRTISMAAPSVGGIMKFAVKVETCLGCKAPIKKGKTALCENCLNRSAELYQRQVAQVNDLEVRFARLWTQCQRCQGSMHQDVICTSRDCPIFYMRIAEHKKLQQSVDLLKRFDEMSW", "notes": "DNA polymerase delta catalytic subunit Pol3, S. pombe; prey plasmid named pACT-Pol3 in the results and pGAD2F-Pol3 in the methods; also called Gal4-Pol3; pACT-Pol3; source: yeast two-hybrid fusion, in S. cerevisiae CTY10-5d"}},
  "experiment_in_all_cases": "two-hybrid; LexA-Cdc1 bait (pBTM116 or pBTM116BN) with Gal4-Pol3 prey and co-expressed c-myc-tagged Cdc27 (pAA-Cdc27) in S. cerevisiae CTY10-5d; ONPG liquid culture beta-galactosidase assay, mean of triplicates, as percent of wild-type Cdc1",
  "details_in_all_cases": "partners not purified",
  "key": {"Cdc1-E1": {"molecular_target": "T1, Cdc1-E1 (Schizosaccharomyces pombe, UniProt P87324 1-462, Ser-GlyValProGlnSer-Asp)", "T1 construct": "Cdc1, S. pombe, with a pentapeptide inserted after residue 66; source: yeast two-hybrid fusion, in S. cerevisiae CTY10-5d", "T1 sequence (looked up)": "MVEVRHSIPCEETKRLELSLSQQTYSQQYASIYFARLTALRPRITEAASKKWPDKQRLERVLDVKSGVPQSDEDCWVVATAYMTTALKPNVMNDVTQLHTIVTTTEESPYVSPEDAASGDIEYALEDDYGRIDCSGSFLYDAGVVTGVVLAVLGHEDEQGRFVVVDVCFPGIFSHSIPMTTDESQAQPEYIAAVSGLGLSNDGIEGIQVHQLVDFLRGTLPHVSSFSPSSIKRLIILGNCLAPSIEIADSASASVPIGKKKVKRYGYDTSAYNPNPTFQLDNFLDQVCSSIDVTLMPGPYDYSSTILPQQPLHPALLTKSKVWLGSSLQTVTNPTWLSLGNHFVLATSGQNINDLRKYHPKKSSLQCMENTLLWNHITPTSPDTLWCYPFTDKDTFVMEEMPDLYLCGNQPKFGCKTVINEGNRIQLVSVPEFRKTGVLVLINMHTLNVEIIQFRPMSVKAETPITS"}, "Cdc1-J4": {"molecular_target": "T2, Cdc1-J4 (Schizosaccharomyces pombe, UniProt P87324 1-462, Ile-GlyValProArgIle-Asp)", "T2 construct": "Cdc1, S. pombe, with a pentapeptide inserted after residue 127; also called J5; J13; source: yeast two-hybrid fusion, in S. cerevisiae CTY10-5d", "T2 sequence (looked up)": "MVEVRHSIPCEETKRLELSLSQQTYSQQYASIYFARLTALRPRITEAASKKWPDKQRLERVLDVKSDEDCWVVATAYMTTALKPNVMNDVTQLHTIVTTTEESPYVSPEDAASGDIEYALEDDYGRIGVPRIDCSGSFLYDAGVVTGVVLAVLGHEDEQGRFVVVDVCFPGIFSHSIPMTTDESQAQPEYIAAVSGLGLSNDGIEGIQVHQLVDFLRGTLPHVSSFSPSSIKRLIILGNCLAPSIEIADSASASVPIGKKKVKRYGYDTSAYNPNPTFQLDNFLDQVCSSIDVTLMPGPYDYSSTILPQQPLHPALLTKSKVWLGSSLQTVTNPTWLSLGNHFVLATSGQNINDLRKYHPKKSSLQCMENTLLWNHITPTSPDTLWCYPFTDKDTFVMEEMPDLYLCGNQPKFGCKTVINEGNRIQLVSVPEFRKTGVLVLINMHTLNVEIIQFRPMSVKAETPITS"}, "Cdc1-J15": {"molecular_target": "T3, Cdc1-J15 (Schizosaccharomyces pombe, UniProt P87324 1-462, Gln-GlyValProLeuGln-Val)", "T3 construct": "Cdc1, S. pombe, with a pentapeptide inserted after residue 203; source: yeast two-hybrid fusion, in S. cerevisiae CTY10-5d", "T3 sequence (looked up)": "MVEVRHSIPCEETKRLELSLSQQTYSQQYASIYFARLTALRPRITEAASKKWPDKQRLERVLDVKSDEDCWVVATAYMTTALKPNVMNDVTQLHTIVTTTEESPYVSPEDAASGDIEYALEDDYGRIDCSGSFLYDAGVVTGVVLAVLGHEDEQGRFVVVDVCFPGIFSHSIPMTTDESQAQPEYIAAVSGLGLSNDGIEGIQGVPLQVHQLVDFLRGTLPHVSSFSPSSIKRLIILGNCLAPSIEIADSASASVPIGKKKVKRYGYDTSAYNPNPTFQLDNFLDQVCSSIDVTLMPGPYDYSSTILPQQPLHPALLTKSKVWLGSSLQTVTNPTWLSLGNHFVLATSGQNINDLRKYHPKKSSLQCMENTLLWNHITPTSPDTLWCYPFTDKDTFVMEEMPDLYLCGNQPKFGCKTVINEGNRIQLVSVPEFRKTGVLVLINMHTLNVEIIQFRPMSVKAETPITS"}, "Cdc1-J22": {"molecular_target": "T4, Cdc1-J22 (Schizosaccharomyces pombe, UniProt P87324 1-462, Arg-GlyValProLeuArg-Gly)", "T4 construct": "Cdc1, S. pombe, with a pentapeptide inserted after residue 212; source: yeast two-hybrid fusion, in S. cerevisiae CTY10-5d", "T4 sequence (looked up)": "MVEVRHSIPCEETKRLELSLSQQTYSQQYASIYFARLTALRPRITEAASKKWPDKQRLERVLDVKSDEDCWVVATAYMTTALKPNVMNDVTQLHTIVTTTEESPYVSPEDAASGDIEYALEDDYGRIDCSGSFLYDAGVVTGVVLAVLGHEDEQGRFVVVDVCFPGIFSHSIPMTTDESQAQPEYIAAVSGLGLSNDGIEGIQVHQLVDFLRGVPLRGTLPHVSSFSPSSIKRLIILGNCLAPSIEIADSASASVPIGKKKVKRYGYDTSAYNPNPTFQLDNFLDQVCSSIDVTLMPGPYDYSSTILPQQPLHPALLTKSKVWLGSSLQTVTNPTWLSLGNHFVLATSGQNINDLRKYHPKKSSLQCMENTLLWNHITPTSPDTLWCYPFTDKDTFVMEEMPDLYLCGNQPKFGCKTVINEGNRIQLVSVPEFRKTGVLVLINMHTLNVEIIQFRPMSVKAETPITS"}},
  "data": [
    {"binder": "B1", "values": [
      {"measurement": "two-hybrid beta-galactosidase activity, % of wild-type Cdc1", "setting": "Cdc1-E1", "value": 65, "unit": "%"},
      {"measurement": "two-hybrid beta-galactosidase activity, % of wild-type Cdc1", "setting": "Cdc1-J4", "value": 36, "unit": "%"},
      {"measurement": "two-hybrid beta-galactosidase activity, % of wild-type Cdc1", "setting": "Cdc1-J15", "value": 1, "unit": "%"},
      {"measurement": "two-hybrid beta-galactosidase activity, % of wild-type Cdc1", "setting": "Cdc1-J22", "value": 25, "unit": "%"}
    ]}
  ]
}
